IntAct's records for PubMed 21362419

B1: Tyrosine-protein kinase JAK2 (Mus musculus), Q62120 (parent)
chain: MGMACLTMTEMEATSTSPVHQNGDIPGSANSVKQIEPVLQVYLYHSLGQAEGEYLKFPSGEYVAEEICVAASKACGITPVYHNMFALMSETERIWYPPNHVFHIDESTRHDILYRIRFYFPHWYCSGSSRTYRYGVSRGAEAPLLDDFVMSYLFAQWRHDFVHGWIKVPVTHETQEECLGMAVLDMMRIAKEKDQTPLAVYNSVSYKTFLPKCVRAKIQDYHILTRKRIRYRFRRFIQQFSQCKATARNLKLKYLINLETLQSAFYTEQFEVKESARGPSGEEIFATIIITGNGGIQWSRGKHKESETLTEQDVQLYCDFPDIIDVSIKQANQECSNESRIVTVHKQDGKVLEIELSSLKEALSFVSLIDGYYRLTADAHHYLCKEVAPPAVLENIHSNCHGPISMDFAISKLKKAGNQTGLYVLRCSPKDFNKYFLTFAVERENVIEYKHCLITKNENGEYNLSGTKRNFSNLKDLLNCYQMETVRSDSIIFQFTKCCPPKPKDKSNLLVFRTNGISDVQISPTLQRHNNVNQMVFHKIRNEDLIFNESLGQGTFTKIFKGVRREVGDYGQLHKTEVLLKVLDKAHRNYSESFFEAASMMSQLSHKHLVLNYGVCVCGEENILVQEFVKFGSLDTYLKKNKNSINILWKLGVAKQLAWAMHFLEEKSLIHGNVCAKNILLIREEDRRTGNPPFIKLSDPGISITVLPKDILQERIPWVPPECIENPKNLNLATDKWSFGTTLWEICSGGDKPLSALDSQRKLQFYEDKHQLPAPKWTELANLINNCMDYEPDFRPAFRAVIRDLNSLFTPDYELLTENDMLPNMRIGALGFSGAFEDRDPTQFEERHLKFLQQLGKGNFGSVEMCRYDPLQDNTGEVVAVKKLQHSTEEHLRDFEREIEILKSLQHDNIVKYKGVCYSAGRRNLRLIMEYLPYGSLRDYLQKHKERIDHKKLLQYTSQICKGMEYLGTKRYIHRDLATRNILVENENRVKIGDFGLTKVLPQDKEYYKVKEPGESPIFWYAPESLTESKFSVASDVWSFGVVLYELFTYIEKSKSPPVEFMRMIGNDKQGQMIVFHLIELLKSNGRLPRPEGCPDEIYVIMTECWNNNVSQRPSFRDLSLRVDQIRDSIAA
partner: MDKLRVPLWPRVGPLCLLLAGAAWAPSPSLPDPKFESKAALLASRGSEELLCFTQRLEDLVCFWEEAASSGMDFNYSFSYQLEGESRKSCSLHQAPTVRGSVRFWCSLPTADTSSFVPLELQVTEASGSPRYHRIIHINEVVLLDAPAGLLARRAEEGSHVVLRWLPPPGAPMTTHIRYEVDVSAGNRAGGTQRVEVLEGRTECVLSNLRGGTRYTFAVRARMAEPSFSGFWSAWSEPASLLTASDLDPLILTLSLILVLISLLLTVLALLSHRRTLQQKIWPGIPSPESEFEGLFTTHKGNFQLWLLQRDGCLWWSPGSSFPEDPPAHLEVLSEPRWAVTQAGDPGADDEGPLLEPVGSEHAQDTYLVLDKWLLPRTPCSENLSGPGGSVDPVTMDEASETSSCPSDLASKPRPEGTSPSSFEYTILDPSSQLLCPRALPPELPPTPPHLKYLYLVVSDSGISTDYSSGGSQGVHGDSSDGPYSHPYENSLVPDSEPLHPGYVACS

Variants of: B1
Details: with epor_mouse Epor

Variant | effect of a mutation on the interaction
V617F | increasing interaction

Variants of: B1
Details: with epor_mouse Epor
Remark: another data set of the same source

Variant | effect of a mutation on the interaction
K539L | increasing interaction

Variants of: B1
Details: with epor_mouse Epor
Remark: another data set of the same source

Variant | effect of a mutation on the interaction
T875N | increasing interaction
